Assay results as given in the supplement of paper PMC9112550, “Optimization of the antimicrobial peptide Bac7 by deep mutational scanning” (BMC Biology, 2022).

Test system: Escherichia coli TOP10
Assay: shrunken log2 fold change of peptide-encoding DNA abundance (4.5 h post-induction vs induction); higher = less antimicrobial activity (less host growth inhibition)
Details: time post-induction: 4.5 h; library: site-saturation at positions 5, 18, 19, 20
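Further: peptides expressed intracellularly from a pBAD plasmid library in pooled LB shake-flask culture, induced with 0.3% L-arabinose, DNA abundance read by NGS, three biological replicates, DESeq2 with apeglm shrinkage.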

With RRIRNRPPRLPRPRPRPPHLPRP the “shrunken log2 fold change” value was 0.155.
RRIRFRPPRLPRPRPRPRTPPRP was tested, and the “shrunken log2 fold change” value was 0.534.
For RRIRYRPPRLPRPRPRPHELPRP, the “shrunken log2 fold change” value was -0.00663.
With RRIRERPPRLPRPRPRPHHYPRP the “shrunken log2 fold change” value was 0.125.
RRIRFRPPRLPRPRPRPIQCPRP was tested, and the “shrunken log2 fold change” value was -0.105.
RRIRSRPPRLPRPRPRPKHFPRP was tested, and the “shrunken log2 fold change” value was 0.0852.
With RRIRTRPPRLPRPRPRPNTAPRP the “shrunken log2 fold change” value was -0.0235.
For RRIRGRPPRLPRPRPRPIKSPRP, the “shrunken log2 fold change” value was 0.326.
With RRIRTRPPRLPRPRPRPSSYPRP the “shrunken log2 fold change” value was -0.0381.
RRIRRRPPRLPRPRPRPMYVPRP was tested, and the “shrunken log2 fold change” value was -0.203.
With RRIRHRPPRLPRPRPRPGWIPRP the “shrunken log2 fold change” value was -0.051.
RRIRMRPPRLPRPRPRPQWPPRP was tested, and the “shrunken log2 fold change” value was -0.132.
For RRIRCRPPRLPRPRPRPCWYPRP, the “shrunken log2 fold change” value was 0.0339.
With RRIRSRPPRLPRPRPRPCWGPRP the “shrunken log2 fold change” value was 0.109.
In the case of RRIRRRPPRLPRPRPRPFLKPRP, the “shrunken log2 fold change” value is reported as -0.0464.
RRIRVRPPRLPRPRPRPTVGPRP was tested, and the “shrunken log2 fold change” value was 0.553.
With RRIRVRPPRLPRPRPRPRWNPRP the “shrunken log2 fold change” value was 0.132.
With RRIRQRPPRLPRPRPRPKFVPRP the “shrunken log2 fold change” value was -0.105.
In the case of RRIRQRPPRLPRPRPRPKVEPRP, the “shrunken log2 fold change” value is reported as -0.00957.
For RRIRRRPPRLPRPRPRPATMPRP, the “shrunken log2 fold change” value was 0.876.
RRIRLRPPRLPRPRPRPLWEPRP was tested, and the “shrunken log2 fold change” value was 0.697.
For RRIRKRPPRLPRPRPRPAQWPRP, the “shrunken log2 fold change” value was 0.421.
With RRIRKRPPRLPRPRPRPRLNPRP the “shrunken log2 fold change” value was 0.489.
With RRIRDRPPRLPRPRPRPKGYPRP the “shrunken log2 fold change” value was -0.097.
For RRIRDRPPRLPRPRPRPGYQPRP, the “shrunken log2 fold change” value was -0.0782.
In the case of RRIRTRPPRLPRPRPRPKKHPRP, the “shrunken log2 fold change” value is reported as -0.265.
With RRIRFRPPRLPRPRPRPTMEPRP the “shrunken log2 fold change” value was -0.266.
With RRIRLRPPRLPRPRPRPQPEPRP the “shrunken log2 fold change” value was 0.419.
In the case of RRIRGRPPRLPRPRPRPDPDPRP, the “shrunken log2 fold change” value is reported as 0.776.
RRIRTRPPRLPRPRPRPIDVPRP was tested, and the “shrunken log2 fold change” value was -0.0217.
For RRIRLRPPRLPRPRPRPPWVPRP, the “shrunken log2 fold change” value was 0.344.
With RRIRIRPPRLPRPRPRPHSQPRP the “shrunken log2 fold change” value was -0.824.
RRIRYRPPRLPRPRPRPGVKPRP was tested, and the “shrunken log2 fold change” value was -0.188.
For RRIRSRPPRLPRPRPRPQSMPRP, the “shrunken log2 fold change” value was -0.384.
For RRIRTRPPRLPRPRPRPKHKPRP, the “shrunken log2 fold change” value was -0.185.
In the case of RRIRIRPPRLPRPRPRPTDIPRP, the “shrunken log2 fold change” value is reported as -0.359.
With RRIRYRPPRLPRPRPRPVYEPRP the “shrunken log2 fold change” value was 2.81.
In the case of RRIRGRPPRLPRPRPRPCMWPRP, the “shrunken log2 fold change” value is reported as 0.29.
In the case of RRIRLRPPRLPRPRPRPTQPPRP, the “shrunken log2 fold change” value is reported as 0.634.
With RRIRVRPPRLPRPRPRPNSMPRP the “shrunken log2 fold change” value was -0.575.
RRIRLRPPRLPRPRPRPGLDPRP was tested, and the “shrunken log2 fold change” value was -0.0233.
With RRIRTRPPRLPRPRPRPKFKPRP the “shrunken log2 fold change” value was -0.225.
RRIRSRPPRLPRPRPRPYNNPRP was tested, and the “shrunken log2 fold change” value was -0.785.
RRIRWRPPRLPRPRPRPDYPPRP was tested, and the “shrunken log2 fold change” value was -0.169.
In the case of RRIRYRPPRLPRPRPRPKRFPRP, the “shrunken log2 fold change” value is reported as 0.00705.
In the case of RRIRWRPPRLPRPRPRPHNVPRP, the “shrunken log2 fold change” value is reported as -0.178.
For RRIRVRPPRLPRPRPRPDCAPRP, the “shrunken log2 fold change” value was 0.0509.
In the case of RRIRRRPPRLPRPRPRPCWHPRP, the “shrunken log2 fold change” value is reported as -0.0148.
RRIRCRPPRLPRPRPRPCHTPRP was tested, and the “shrunken log2 fold change” value was 0.00624.
In the case of RRIRYRPPRLPRPRPRPYTQPRP, the “shrunken log2 fold change” value is reported as -0.273.
For RRIRKRPPRLPRPRPRPNKYPRP, the “shrunken log2 fold change” value was -0.168.
In the case of RRIRARPPRLPRPRPRPHELPRP, the “shrunken log2 fold change” value is reported as 0.0601.
In the case of RRIRNRPPRLPRPRPRPWDIPRP, the “shrunken log2 fold change” value is reported as -0.00804.
In the case of RRIRGRPPRLPRPRPRPFWFPRP, the “shrunken log2 fold change” value is reported as 0.283.
RRIRFRPPRLPRPRPRPTGKPRP was tested, and the “shrunken log2 fold change” value was 0.205.
RRIRIRPPRLPRPRPRPYVRPRP was tested, and the “shrunken log2 fold change” value was -0.199.
In the case of RRIRMRPPRLPRPRPRPDTMPRP, the “shrunken log2 fold change” value is reported as 0.28.
For RRIRLRPPRLPRPRPRPTERPRP, the “shrunken log2 fold change” value was -0.189.
With RRIRIRPPRLPRPRPRPFCRPRP the “shrunken log2 fold change” value was 0.087.
With RRIRFRPPRLPRPRPRPFIGPRP the “shrunken log2 fold change” value was -0.362.
With RRIRPRPPRLPRPRPRPMAEPRP the “shrunken log2 fold change” value was 0.106.
In the case of RRIRIRPPRLPRPRPRPVNQPRP, the “shrunken log2 fold change” value is reported as 0.0745.
In the case of RRIRHRPPRLPRPRPRPVAIPRP, the “shrunken log2 fold change” value is reported as 2.06.
With RRIRWRPPRLPRPRPRPCLIPRP the “shrunken log2 fold change” value was -0.151.
RRIRCRPPRLPRPRPRPYQHPRP was tested, and the “shrunken log2 fold change” value was -0.381.
With RRIRPRPPRLPRPRPRPVNGPRP the “shrunken log2 fold change” value was 0.0391.
RRIRWRPPRLPRPRPRPYDCPRP was tested, and the “shrunken log2 fold change” value was 0.00333.
For RRIRGRPPRLPRPRPRPPHMPRP, the “shrunken log2 fold change” value was 0.489.
RRIRCRPPRLPRPRPRPCEFPRP was tested, and the “shrunken log2 fold change” value was -0.0925.
RRIRCRPPRLPRPRPRPWYNPRP was tested, and the “shrunken log2 fold change” value was -1.45.
RRIRRRPPRLPRPRPRPAGRPRP was tested, and the “shrunken log2 fold change” value was 0.41.
In the case of RRIRQRPPRLPRPRPRPYAKPRP, the “shrunken log2 fold change” value is reported as -0.122.
In the case of RRIRIRPPRLPRPRPRPVDHPRP, the “shrunken log2 fold change” value is reported as -0.498.
For RRIRMRPPRLPRPRPRPFWHPRP, the “shrunken log2 fold change” value was -0.00226.
For RRIRPRPPRLPRPRPRPAFHPRP, the “shrunken log2 fold change” value was 0.189.
In the case of RRIRWRPPRLPRPRPRPEQAPRP, the “shrunken log2 fold change” value is reported as -0.0201.
In the case of RRIRARPPRLPRPRPRPNSIPRP, the “shrunken log2 fold change” value is reported as -0.125.
For RRIRERPPRLPRPRPRPTHAPRP, the “shrunken log2 fold change” value was 0.332.
With RRIRERPPRLPRPRPRPWRAPRP the “shrunken log2 fold change” value was 0.0397.
RRIRMRPPRLPRPRPRPRLVPRP was tested, and the “shrunken log2 fold change” value was 0.76.
RRIRARPPRLPRPRPRPIRRPRP was tested, and the “shrunken log2 fold change” value was 0.24.
With RRIRNRPPRLPRPRPRPMPPPRP the “shrunken log2 fold change” value was 0.208.
With RRIRLRPPRLPRPRPRPNCNPRP the “shrunken log2 fold change” value was -0.535.
RRIRYRPPRLPRPRPRPSHPPRP was tested, and the “shrunken log2 fold change” value was -0.639.
In the case of RRIRTRPPRLPRPRPRPHCDPRP, the “shrunken log2 fold change” value is reported as -0.0828.
For RRIRWRPPRLPRPRPRPMIHPRP, the “shrunken log2 fold change” value was -0.0666.
For RRIRLRPPRLPRPRPRPRRSPRP, the “shrunken log2 fold change” value was -0.169.
For RRIRWRPPRLPRPRPRPHTRPRP, the “shrunken log2 fold change” value was -0.0595.
In the case of RRIRTRPPRLPRPRPRPLLAPRP, the “shrunken log2 fold change” value is reported as 0.282.
For RRIRTRPPRLPRPRPRPITNPRP, the “shrunken log2 fold change” value was -0.489.
For RRIRLRPPRLPRPRPRPIMTPRP, the “shrunken log2 fold change” value was -0.397.
For RRIRMRPPRLPRPRPRPKDMPRP, the “shrunken log2 fold change” value was 0.0907.
RRIRARPPRLPRPRPRPAENPRP was tested, and the “shrunken log2 fold change” value was 0.865.
RRIRIRPPRLPRPRPRPRCHPRP was tested, and the “shrunken log2 fold change” value was -0.466.
RRIRTRPPRLPRPRPRPHHNPRP was tested, and the “shrunken log2 fold change” value was -0.795.
RRIRARPPRLPRPRPRPERAPRP was tested, and the “shrunken log2 fold change” value was 0.845.
With RRIRTRPPRLPRPRPRPNTGPRP the “shrunken log2 fold change” value was -0.388.
In the case of RRIRRRPPRLPRPRPRPAILPRP, the “shrunken log2 fold change” value is reported as -0.017.
With RRIRYRPPRLPRPRPRPGYLPRP the “shrunken log2 fold change” value was -0.33.
For RRIRKRPPRLPRPRPRPTPEPRP, the “shrunken log2 fold change” value was 0.611.
RRIRGRPPRLPRPRPRPTFPPRP was tested, and the “shrunken log2 fold change” value was 0.347.
RRIRGRPPRLPRPRPRPMGYPRP was tested, and the “shrunken log2 fold change” value was 0.111.
For RRIRCRPPRLPRPRPRPADFPRP, the “shrunken log2 fold change” value was 1.07.
RRIRHRPPRLPRPRPRPWNGPRP was tested, and the “shrunken log2 fold change” value was -0.228.
For RRIRDRPPRLPRPRPRPTYGPRP, the “shrunken log2 fold change” value was -0.257.
With RRIRGRPPRLPRPRPRPKLPPRP the “shrunken log2 fold change” value was 0.821.
For RRIRNRPPRLPRPRPRPGCVPRP, the “shrunken log2 fold change” value was 0.634.
In the case of RRIRDRPPRLPRPRPRPYSCPRP, the “shrunken log2 fold change” value is reported as 0.0113.
In the case of RRIRYRPPRLPRPRPRPFELPRP, the “shrunken log2 fold change” value is reported as -0.529.
